Source: paper PMC2760593 (Journal of biochemistry, 2008)

Target: T1, polyhistidine (His)-tagged recombinant full-length CCN2 (UniProt P29279 27-349)
T1 sequence (looked up): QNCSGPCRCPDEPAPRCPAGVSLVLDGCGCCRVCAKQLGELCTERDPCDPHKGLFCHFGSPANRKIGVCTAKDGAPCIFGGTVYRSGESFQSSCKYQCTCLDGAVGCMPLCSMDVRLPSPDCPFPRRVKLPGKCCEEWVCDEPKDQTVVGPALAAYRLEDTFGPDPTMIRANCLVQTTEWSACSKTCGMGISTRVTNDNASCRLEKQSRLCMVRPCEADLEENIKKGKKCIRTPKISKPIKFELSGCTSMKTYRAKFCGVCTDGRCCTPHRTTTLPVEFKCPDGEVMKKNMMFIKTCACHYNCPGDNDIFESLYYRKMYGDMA
Assay: SPR

B1: recombinant bone morphogenetic protein (BMP)-2 (ligand, UniProt P12643 283-396, looked up)
chain: QAKHKQRKRLKSSCKRHPLYVDFSDVGWNDWIVAPPGYHAFYCHGECPFPLADHLNSTNHAIVQTLVNSVNSKIPKACCVPTELSAISMLYLDENEKVVLKNYQDMVVEGCGCR
Kd: 770 pM
